Measurements as given in the DeepSol protein solubility set.

Assay: soluble on expression in E. coli; label from the status in PepcDB or PDB records

Row | Sequence | soluble on expression in E. coli
1 | MDKKPLNTLISATGLWMSRTGTIHKIKHHEVSRSKIYIEMACGDHLVVNNSRSSRTARALRHHKYRKTCKRCRVSDEDLNKFLTKANEDQTSVKVKVVSAPTRTKKAMPKSVARAPKPLENTEAAQAQPSGSKFSPAIPVSTQESVSVPASVSTSISSISTGATASALVKGNTNPITSMSAPVQASAPALTKSQTDRLEVLLNPKDEISLNSGKPFRELESELLSRRKKDLQQIYAEERENYLGKLEREITRFFVDRGFLEIKSPILIPLEYIERMGIDNDTELSKQIFRVDKNFCLRPMLAPNLYNYLRKLDRALPDPIKIFEIGPCYRKESDGKEHLEEFTMLNFCQMGSGCTRENLESIITDFLNHLGIDFKIVGDSCMVYGDTLDVMHGDLELSSAVVGPIPLDREWGIDKPWIGAGFGLERLLKVKHDFKNIKRAARSESYYNGISTNL | soluble
2 | MTMDKSELVQKAKLAEQAERYDDMAAAMKAVTEQGHELSNEERNLLSVAYKNVVGARRSSWRVISSIEQKTERNEKKQQMGKEYREKIEAELQDICNDVLELLDKYLIPNATQPESKVFYLKMKGDYFRYLSEVASGDNKQTTVSNSQQAYQEAFEISKKEMQPTHPIRLGLALNFSVFYYEILNSPEKACSLAKTAFDEAIAELDTLNEESYKDSTLIMQLLRDNLTLWTSENQGDEGENLYFQ | soluble
3 | GLGNVDETLEIKQLLNIYRDLQLGHFCAFYQPQKHIDSGGVVAFEALARRVIGKGLYEMPDRFFPILEKYHLIPTLTEVMVRDILTFLMTEDAVLQDITIGVNIPGKMLTDGSFYRLLLSVAEEKQAQHALHRLSVEITEHDLIADFDAAKHEIYKLKSLGIRCALDDFGTGYSGYEYLCEIPFDVVKIDGRYIQSLGKAESSTVILQSMISSIKSLSMQVIAEWVDSDQQYQILQEMGCDLVQGYLVSPA | not soluble
4 | MGSDKIHHHHHHMSQRIGVIDMGTNTFHLLITDIVNDRPHTLVNEKSAVGLGKGGITKGFITEEAMDRALDTLKKFRVILDEHAVVHVIATGTSAVRSGSNKQVLIDRIKKEVNIDVEVIDGAREAELIFRGVQQAVPMEDHISLAMDIGGGSVEFIIGNKNEILWKQSFEIGGQRLIDRFHVHDPMREDDRVMMHNYFDEVLVPLEKAINTWRPTQLIGCSGTFDTLAEMNIQHHREKIALEKQTSYLLSLPDFNRLRKQLVASTRRERLAIAGMIELRADMVVVAICLIEHVLKLVSTNAITVSTYSLKEGVLYTMLDGVKVGS | not soluble
5 | MANEQVLTAEQVLEKASQYLVDEDIELVARAYEYARDAHSEQYRKSGEPYIIHPIQVAGVLVDLHMDPATVSAGFLHDVVEDTEITLEDIEREFNKEIAMLVDGVTKLGKIKYKSHEQQQAENHRKMFIAMAQDIRVILIKLADRLHNMRTLKHLPQEKQRRIANETLEIFAPLAHRLGISTIKWELEDTSLRYLNPQQYYRIVNLMKRKRAEREEYLDEVMTGIREKLDEVAIQPEISGRPKHIYSIYRKMALQNKQFNEIYDLLAVRVVVNSIKDCYAVLGIIHTCWKPMPGRFKDYIAMPKANLYQSLHTTVIGPKGDPLEVQIRTKEMHEIAEFGIAAHWAYKEGKTAETTGTLEKKLTWFRQILEWQNEASNAEEFMESLKIDLFSDMVFVFTPKGDVMELPLGSVPIDFAYRVYSEIGNKTIGAKVNGKMVTLDYKLKTGDIIEILTSKHSYGPSQDWVKLAQTSHAKNKIRQFFKKQRRDENIEKGRELVEKEVRSLEYEMKEVLAPDNLKRVAEKFNFANEEDMFAAVGYNGITASQIVTRLTDKFRKQREEEEIVEVKEVRKPMKIRKWDSGVKVSGADNLLIRLSKCCNPVPGDDIVGYITKGRGVSIHRRDCVNVHTEEAIERLLEVEWEGSPEKEIEYNVDIEISGYDRRGLLNEVLQAVTETKTYISAVSGRSDRNKMATINMSISIRNLQHLKKVVERIKRVPEIYAVRRMMH | not soluble
6 | MLDVEVEEKAGPKGKHNKDRTVYSYGTEKTSVVLDGRKVKIERPRLCVYKIRKLTLKDSNSFSRRTR | not soluble
7 | ALQAGRLGSTVFVANLDYKVGWKKLKEVFSMAGVVVRADILEDKDGKSRGIGTVTFEQSIEAVQAISMFNGQLLFDRPMHVKMDERALPKGDFFPPERPQQ | soluble
8 | MNPGGAEVSVVIPAWNAEATLGRALASVRAQTLAPRQVIVVNDGSSDATPEIAARMATKTFPVTVIDRTGRGSGPAAARNAGIAAAGEPFVAFLDADDVWLPDKLARQMAALRASPDAVLCCCDAQWVGEDAPARTAHPTIYEDRPIKGGAEAWKEILLDCYVGTPCVVARRAALIEAGGFDERLVVGEDQDLWIRLALQGPVIALPEVLVRYGLSADSHMARHRALAASLWLPHFEALVSGLGARLSAGERDAILRARLWRMARSVYLDGRKDLGLSLMARAVAHGLPRRARMVFLARARLRSALGRNGLEHHHHHH | not soluble
9 | MHHHHHHSSGVDLGTENLYFQSMQGTNPYLTFHCVNQGTILLDLAPEDKEYQSVEEEMQSTIREHRDGGNAGGIFNRYNVIRIQKVVNKKLRERFCHRQKEVSEENHNHHNERMLFHGSPFINAIIHKGFDERHAYIGGMFGAGIYFAENSSKSNQYVYGIGGGTGCPTHKDRSCYICHRQMLFCRVTLGKSFLQFSTIKMAHAPPGHHSVIGRPSVNGLAYAEYVIYRGEQAYPEYLITYQIMKPEAPSQTATAAEQ | soluble
10 | MSSIVEHVVLFKLNDDDVDSGKINSMVNGINELVNLDQVLHLYCGSIHRLITTTASDFTHVLHSRYRSKEDLNAYAIHPDHVRVVKESESIREDIMAVDWIAEQAPE | not soluble
11 | MSLACGEFSLIARYFDRVRSSRLDVETGIGDDCALLNIPEKQTLAISTDTLVAGNHFLPDIDPADLAYKALAVNLSDLAAMGADPAWLTLALTLPEVDEPWLEAFSDSLFALLNYYDMQLIGGDTTRGPLSMTLGIHGYIPAGRALKRSGAKPGDWIYVTGTPGDSAAGLAVLQNRLQVSEETDAHYLIQRHLRPTPRILHGQALRDIASAAIDLSDGLISDLGHIVKASGCGARVDVDALPKSDAMMRHVDDGQALRWALSGGEDYELCFTVPELNRGALDVAIGQLGVPFTCIGQMSADIEGLNFVRDGMPVTFDWKGYDHFATPEGGSHHHHHH | soluble
12 | MAHHHHHHMLHRIPAYRDPLLQVLSDALKRALDFYRREMSAGMSVEFECRLGTFSASKHTYAHPFPTHTLTPALLDGQSTTPFFFFAGVAQPSFIAAHETLKTIGASMPPRSSTVLSVRTVGKDRLEYAMNEACNSGHLLTIVEKERIFSHDVRCPGWGADFRVSVSREKTIDRETWNQAKWESFTPNISRLRQRKSVRIDPFLSVDMAMVRSFTDHSRFVRPWSPELQVPFISAPHVSFDVELEVNMPALHRVVKQTRLVESTLGRTALDLLTVLQFLAAKRE | not soluble
13 | MGSDKIHHHHHHMSDIIDEVISSFKTSSIFINREYLLPDYIPDELPHREDQIRKIASILAPLYREEKPNNIFIYGLTGTGKTAVVKFVLSKLHKKFLGKFKHVYINTRQIDTPYRVLADLLESLDVKVPFTGLSIAELYRRLVKAVRDYGSQVVIVLDEIDAFVKKYNDDILYKLSRINSEVNKSKISFIGITNDVKFVDLLDPRVKSSLSEEEIIFPPYNAEELEDILTKRAQMAFKPGVLPDNVIKLCAALAAREHGDARRALDLLRVSGEIAERMKDTKVKEEYVYMAKEEIERDRVRDIILTLPFHSKLVLMAVVSISSEENVVSTTGAVYETYLNICKKLGVEAVTQRRVSDIINELDMVGILTAKVVNRGRYGKTKEIGLAVDKNIIVRSLIESDSRFADLWS | not soluble
14 | QKPKLLYCSNGGYFLRIFPDGKVDGTRDRSDPYIQLQFYAESVGEVYIKSLETGQYLAMDSDGQLYASQSPSEECLFLERLEENNYNTYKSKVHADKDWFVGIKKNGKTKPGSRTHFGQKAILFLPLPVSSD | soluble
15 | MAIYADNSYSIGNTPLVRLKHFGHNGNVVVKIEGRNPSYSVKCRIGANMVWQAEKDGTLTKGKEIVDATSGNTGIALAYVAAARGYKITLTMPETMSLERKRLLCGLGVNLVLTEGAKGMKGAIAKAEEIVASDPSRYVMLKQFENPANPQIHRETTGPEIWKDTDGKVDVVVAGVGTGGSITGISRAIKLDFGKQITSVAVEPVESPVISQTLAGEEVKPGPHKIQGIGAGFIPKNLDLSIIDRVETVDSDTALATARRLMAEEGILAGISSGAAVAAADRLAKLPEFADKLIVVILPSASERYLSTALFEGIEG | soluble
16 | MNPKHFIAFSALFAATQAEALPVASVSPDTVTVSPSAPYTDTNGLLTDYGNAAASPWMKKLRSVAQGSGEAFRILQIGDSHTAGDFFTDALRKRLQKTWGDGGIGWVYPANVKGQRMAAVRYNGNWQSLNSRSAAADFPLGGILAQTGSGGSMTLTASDGKTGKQRVSLFAKPLLAEQTLTVNGNTVSANGGGWQVLDTGAALPLAIQTEMPWDIGFINIENPAGGITVSAMGINGAQLTQWSKWRADRMNDLAQTGADLVILSYGTNEAFNNNIDIADTEQKWLDTVRQIRDSLPAAGILIIGAPESLKNTLGVCGTRPVLLTEVQQMQRRVARQGQTMFWSWQNAMGGICSMKNWLNQGWAAKDGVHFSAQGYRRAAEMLADSLEELVRAAAIR | soluble
17 | MDRFHATSADCCISYTPRSIPCSLLESYFETNSECSKPGVIFLTKKGRRFCANPSDKQVQVCMRMLKLDTRIKTRKN | soluble
18 | MSLLEQLDKNIAASGGLIVSCQPVPGSPLDKPEIVAAMALAAEQAGAVAVRIEGIDNLRMTRSLVSVPIIGIIKRDLDESPVRITPFLDDVDALAQAGAAIIAVDGTARQRPVAVEALLARIHHHHLLAMADCSSVDDGLACQRLGADIIGTTMSGYTTPDTPEEPDLPLVKALHDAGCRVIAEGRYNSPALAAEAIRYGAWAVTVGSAITRLEHICGWYNDALKKAAS | not soluble
19 | MPQILVDADACPVKAEIKQVAKEFQLEVTFVASFNHYSVNTNGENWIFVDTGKESADMRMMNLAKKGDIIVTQDIGLASILLAKGTFVFSNRGELYREEEMSLMLDIRYRHAKERQQGKYSKGPKAMSDQDRSLFKDRLTTFLQNKLEHHHHHH | soluble
20 | MGSDKIHHHHHHMRKLPPLRALQIFEAAARHAHFSRAATELCITQSAVSHQVRLLEAHFGERLFIREGRQLCLTSKGNVLYHELERIFNELNDLSMQITGDCNDQLRLAVYSSFAIKWLIPRLSDFHRLHPQIKIRLDMITDDPQMSDSVADMFITGQSGQPGYVHRMLHQERLIPVICPGLLNTDHSALSVLRQHALLTVDEGPIGFDWERWLKVNSISIAATQQQHVFSHVLLAIEAAIAGQGIALASDFMVERDISKGALVALDLPAMLTGFEFNFSCKQRRLKEPAIAAFVQWLTKK | not soluble
21 | MGSDKIHHHHHHMQTHQELYLPRMGCGTWAWGNQLLWGYNESMDEQLQAVFNLCVSNGVTLFDTGDSYGTGRLNGRSELLLGQFAQEYQGVNQENICIATKLAAYPWRWTRQSMINACKSSAQRLGRNVDLVQMHWSTANYAPWQESGLLDGLADLYEQGLVKGVGLSNYGTKRLQRVHQKFAERGVPIKTLQVQYSLLSTYPVTELGLKDVCDQLGIKLIAYSPLALGILTGKYSEKGPFPRGVRGLLFRQLLPGVRSLLQCLQDVAQSRNKTMSQVALNWCIAKGTIPIPGAKSVKQAQENIGALGWQLDSGEIAELDKAAASSDKKMVQNIFQTK | not soluble
22 | EFRKLGEVCESTNKKTLKISEVSEVKNKGMYPVINSGRDLYGYYHDFNNDGENITIASRGEYAGFINYFNEKFFAGGLCYPYKVKDTNELLTKFLYFYLKTNEIQIMENLVFRGSIPALNKADIETLTIPIPPLEIQQEIVKILDQFSA | not soluble
